Reference: patent publication US20030021774A1

Legend:
Assay in all cases: cell-based or functional assay
[1] = biological target: protease derived from Bacillus alcalophilus NCIMB 10438 (Bacillus alcalophilus NCIMB 10438)
[2] = biological target: protease derived from Acremonium chrysogenum ATCC 48272 (Acremonium chrysogenum ATCC 48272)
[3] = biological target: protease derived from Fusarium oxysporum IFO 4471 (Fusarium oxysporum IFO 4471)
[4] = biological target: T1, Sub.Novo(Y217L), mutant of subtilisin from Bacillus amyloliquefaciens (Bacillus amyloliquefaciens) (UniProt P00782)
T1 sequence (looked up): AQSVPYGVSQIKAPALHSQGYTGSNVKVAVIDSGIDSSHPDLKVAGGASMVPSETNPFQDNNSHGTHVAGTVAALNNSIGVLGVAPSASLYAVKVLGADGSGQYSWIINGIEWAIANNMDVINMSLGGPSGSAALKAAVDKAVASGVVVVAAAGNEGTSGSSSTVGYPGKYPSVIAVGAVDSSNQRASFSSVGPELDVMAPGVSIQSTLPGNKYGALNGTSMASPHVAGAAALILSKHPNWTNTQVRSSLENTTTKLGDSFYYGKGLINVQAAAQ

[5] = biological target: protease derived from Aspergillus sp. CBS 102448
[6] = biological target: protease derived from Paecilomyces lilacinus CBS 102449 (Paecilomyces lilacinus CBS 102449)
[7] = biological target: T2, SAVINASE, subtilisin derived from Bacillus clausii (previously Bacillus lentus NCIB 10309) (Bacillus clausii (previously Bacillus lentus NCIB 10309)) (UniProt P29600)
T2 sequence (looked up): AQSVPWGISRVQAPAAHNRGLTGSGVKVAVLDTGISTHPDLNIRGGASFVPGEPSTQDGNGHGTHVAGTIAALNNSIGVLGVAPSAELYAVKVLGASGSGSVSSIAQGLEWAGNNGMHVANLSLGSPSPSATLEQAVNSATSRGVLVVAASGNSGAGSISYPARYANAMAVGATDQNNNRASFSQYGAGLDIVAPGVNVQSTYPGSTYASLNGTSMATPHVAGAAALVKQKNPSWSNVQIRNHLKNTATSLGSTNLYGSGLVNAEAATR

[8] = biological target: protease derived from Bacillus sp. NCIMB 40484 (Bacillus sp. NCIMB 40484)
[9] = biological target: T3, Sub.Novo, subtilisin from Bacillus amyloliquefaciens (Bacillus amyloliquefaciens) (UniProt P00782)
T3 sequence (looked up): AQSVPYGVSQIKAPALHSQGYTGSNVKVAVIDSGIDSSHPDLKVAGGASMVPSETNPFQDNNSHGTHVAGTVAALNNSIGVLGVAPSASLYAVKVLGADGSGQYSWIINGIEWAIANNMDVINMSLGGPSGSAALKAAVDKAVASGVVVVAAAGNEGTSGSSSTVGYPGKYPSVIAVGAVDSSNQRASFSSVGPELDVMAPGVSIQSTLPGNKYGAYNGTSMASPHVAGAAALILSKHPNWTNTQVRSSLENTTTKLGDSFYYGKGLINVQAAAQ

protease derived from Acremonium chrysogenum ATCC 48272 (Acremonium chrysogenum ATCC 48272), sequence (P29118 other isoform, or with tags, fused parts or gaps): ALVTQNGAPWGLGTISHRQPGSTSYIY

B1: Streptomyces Subtilisin Inhibitor (SSI) (protein, UniProt P01006 32-144, looked up)
chain: DAPSALYAPSALVLTVGKGVSATTAAPERAVTLTCAPGPSGTHPAAGSACADLAAVGGDLNALTRGEDVMCPMVYDPVLLTVDGVWQGKRVSYERVFSNECEMNAHGSSVFAF
Work on B1 yielded a Residual activity (%) on Suc-AAPF-pNA after incubation with SSI [1] of 0%, a Residual activity (%) on Suc-AAPF-pNA after incubation with SSI [2] of 0.1% and a Residual activity (%) on Suc-AAPF-pNA after incubation with SSI [3] of 0.1%. The Residual activity (%) on Suc-AAPF-pNA after incubation with SSI [4] was 0%, the Residual activity (%) on Suc-AAPF-pNA after incubation with SSI [5] was 0.1% and the Residual activity (%) on Suc-AAPF-pNA after incubation with SSI [6] was 0.1%. For the same binder, the Residual activity (%) on Suc-AAPF-pNA after incubation with SSI [7] was 0%, the Residual activity (%) on Suc-AAPF-pNA after incubation with SSI [8] was 4.3% and the Residual activity (%) on Suc-AAPF-pNA after incubation with SSI [9] was 0.1%.
